Assay results from US20240067747A1 (SHANGHAI HUAOTA BIOPHARMACEUTICAL, published 2024).
Read-outs that look alike come from different tables or passages of the source.

Experiments:
[1] = biological target: T1, human CD73 on the cell surface of CHOK1-huCD73-3F4 cells (Huabo Biopharm) (human, UniProt P21589 27-549); assay: cell-based or functional assay
T1 sequence (looked up): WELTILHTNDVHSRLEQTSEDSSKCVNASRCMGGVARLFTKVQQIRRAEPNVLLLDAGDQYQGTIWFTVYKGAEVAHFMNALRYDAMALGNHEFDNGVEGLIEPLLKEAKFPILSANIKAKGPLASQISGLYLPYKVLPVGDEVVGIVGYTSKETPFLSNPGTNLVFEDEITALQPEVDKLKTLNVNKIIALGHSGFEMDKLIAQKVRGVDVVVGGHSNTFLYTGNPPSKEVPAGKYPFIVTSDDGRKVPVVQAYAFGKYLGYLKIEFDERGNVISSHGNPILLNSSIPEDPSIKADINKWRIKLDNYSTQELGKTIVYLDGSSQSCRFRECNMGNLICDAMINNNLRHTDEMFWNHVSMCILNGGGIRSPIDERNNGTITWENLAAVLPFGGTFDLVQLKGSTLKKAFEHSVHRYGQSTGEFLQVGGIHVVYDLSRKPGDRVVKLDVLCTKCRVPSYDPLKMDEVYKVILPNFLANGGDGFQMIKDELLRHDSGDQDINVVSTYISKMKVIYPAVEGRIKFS

[2] = biological target: T1, human CD73 on the cell surface of …; assay: flow cytometry on CHOK1-huCD73-3F4 cells, PE-goat anti-human-Fc
Protocol: All antigen-binding proteins were diluted to 30 μg/ml with 1% BSA in PBS solution (1% BSA/PBS) and then 3-fold diluted for 11 gradients. The diluted antigen-binding proteins were added to a 96-well U-shaped plate at 20 μL per well; and a negative control (with 1% BSA/PBS added only) was set up at the same time. The suspension of cells (CHOK1-huCD73-3F4, Huabo Biopharm) expressing human CD73 during the logarithmic growth phase were centrifuged (1000 rpm×5 min) to discard the culture medium; and the cells were resuspended with 1% BSA/PBS until the density of viable cells was 1×10⁶/mL, and were added, at 20 μL (2×10⁴ cells) per well, to the 96-well U-shaped plate with the […] antigen-binding protein to react for 30 min at room temperature. After reaction, the 96-well U-shaped plate was resuspended with 1% BSA/PBS, centrifuged (300 g×3 min) to discard the supernatant, and washed once in such a way. PE-goat anti-human-Fc (Jackson ImmunoResearch, #109-115098) diluted at 1:200 was added to react for 15 min in the dark at room temperature. After reaction, the 96-well U-shaped plate was resuspended with 1% BSA/PBS, centrifuged (300 g×3 min) to discard the supernatant, washed three times in such a way, and finally resuspended with 100 μL of 1% BSA/PBS for each wall; and the fluorescence intensity of a PE channel was detected with a flow cytometer (BD, #Cantoll).

[3] = biological target: T2, Human CD73 (as used in the hybridoma screening of Table 1) (human, UniProt P21589 27-549, limits assumed); assay: Biacore affinity screen of hybridoma clones
T2 sequence (looked up): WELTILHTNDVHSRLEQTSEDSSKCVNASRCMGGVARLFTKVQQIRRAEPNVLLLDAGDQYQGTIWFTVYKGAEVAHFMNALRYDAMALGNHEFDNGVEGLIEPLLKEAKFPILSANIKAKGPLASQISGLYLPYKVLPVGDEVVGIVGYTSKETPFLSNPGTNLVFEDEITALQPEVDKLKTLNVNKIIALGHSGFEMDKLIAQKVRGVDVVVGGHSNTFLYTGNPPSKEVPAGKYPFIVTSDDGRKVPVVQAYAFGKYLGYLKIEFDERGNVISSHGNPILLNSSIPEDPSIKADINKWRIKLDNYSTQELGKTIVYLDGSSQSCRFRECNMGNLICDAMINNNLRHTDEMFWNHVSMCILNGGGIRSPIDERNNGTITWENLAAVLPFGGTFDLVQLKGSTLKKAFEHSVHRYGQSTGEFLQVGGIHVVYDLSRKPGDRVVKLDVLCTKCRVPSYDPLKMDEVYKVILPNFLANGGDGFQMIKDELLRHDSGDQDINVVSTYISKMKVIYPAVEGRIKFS

[4] = biological target: T1, human CD73 on the cell surface of …; assay: cell-based or functional assay; remark: listed apart in the source

B1: 900584 (screened antigen-binding protein targeting CD73) (antibody, V domains shown)
VH: QVQVQQPGTELVKPGASVKLSCKASGYTFTGYWMHWVKQRPGQGLEWIGMIHPNSGSTYYNEKFKSKATLTVDRSSSTAYMQLSSLSSEDSAVYYCARYYGTTYEWYFDVWGTGTTVTVSS
VL: DIQMTQTTSSLSASLGDRVTISCRASQDISNYLNWYQQKPDGTVKPLIYYTSSLHSGVPSRFSGSGSGTDYSLTISDLEHEDIATYFCQQGYTLPFTFGGGTKLEIK
notes: It was detected with PE-goat anti-human-Fc
In the case of B1, the “EC50 of inhibition of the enzyme activity of CD73 on cell membrane (AMP/ATP, CellTiter-Glo)” value [1] is reported as 11.1 µg/mL and the EC50 [2] is reported as 2.9 µg/mL.

B2: 124A9 murine monoclonal antigen-binding protein (hybridoma clone 124A9) (antibody, V domains shown)
VH: QVQLQQPGAELVKPGASVKLSCKASGYTFTSYWIHWVKQRPGQGLDWIGMIHPNSGSTYYNEKFKSKATLTVDKSSSTAYMQLSSLTSEDSAVYYCARYYGSDYEWYFDVWGTGTTVTVSS
VL: DIVMTQSQKFMSTSVGDRVSITCKASQNVRTAVVWYQQNPGQSPKALIYLASNRHTGVPDRFTGSGSGTDFTLTISNVHSEDLADYFCLQHWNYPYTFGGGTKLEIK
For B2, the Kd [3] was 2.16 nM.

B3: 900759 (Oleclumab antibody sourced from MedImmune, MEDI 9447) (antibody, human IgG1, lambda, L234A L235A, V domains shown)
VH: EVQLLESGGGLVQPGGSLRLSCAASGFTFSSYAYSWVRQAPGKGLEWVSAISGSGGRTYYADSVKGRFTISRDNSKNTLYLQMNSLRAEDTAVYYCARLGYGRVDEWGRGTLVTVSS
VL: QSVLTQPPSASGTPGQRVTISCSGSLSNIGRNPVNWYQQLPGTAPKLLIYLDNLRLSGVPDRFSGSKSGTSASLAISGLQSEDEADYYCATWDDSHPGWTFGGGTKLTVLG
With B3 the “EC50 of inhibition of the enzyme activity of CD73 on cell membrane (AMP/ATP, CellTiter-Glo)” value [4] was 0.0417 µg/mL.
